Data reported in article PMC6644156, “A de novo substitution in BCL11B leads to loss of interaction with transcriptional complexes and craniosynostosis” (Human Molecular Genetics, 2019).
Changes are numbered by the printed parent chain. Names may count otherwise.

B1: BCL11B: FLAG-BCL11B, wild-type protein expressed in transfected HEK293T cells (protein)
chain: MSRRKQGNPQHLSQRELITPEADHVEAAILEEDEGLEIEEPSGLGLMVGGPDPDLLTCGQCQMNFPLGDILVFIEHKRKQCGGSLGACYDKALDKDSPPPSSRSELRKVSEPVEIGIQVTPDEDDHLLSPTKGICPKQENIAGPCRPAQLPAVAPIAASSHPHSSVITSPLRALGALPPCLPLPCCSARPVSGDGTQGEGQTEAPFGCQCQLSGKDEPSSYICTTCKQPFNSAWFLLQHAQNTHGFRIYLEPGPASSSLTPRLTIPPPLGPEAVAQSPLMNFLGDSNPFNLLRMTGPILRDHPGFGEGRLPGTPPLFSPPPRHHLDPHRLSAEEMGLVAQHPSAFDRVMRLNPMAIDSPAMDFSRRLRELAGNSSTPPPVSPGRGNPMHRLLNPFQPSPKSPFLSTPPLPPMPPGGTPPPQPPAKSKSCEFCGKTFKFQSNLIVHRRSHTGEKPYKCQLCDHACSQASKLKRHMKTHMHKAGSLAGRSDDGLSAASSPEPGTSELAGEGLKAADGDFRHHESDPSLGHEPEEEDEEEEEEEEELLLENESRPESSFSMDSELSRNRENGGGGVPGVPGAGGGAAKALADEKALVLGKVMENVGLGALPQYGELLADKQKRGAFLKRAAGGGDAGDDDDAGGCGDAGAGGAVNGRGGGFAPGTEPFPGLFPRKPAPLPSPGLNSAAKRIKVEKDLELPPAALIPSENVYSQWLVGYAASRHFMKDPFLGFTDARQSPFATSSEHSSENGSLRFSTPPGDLLDGGLSGRSGTASGGSTPHLGGPGPGRPSSKEGRRSDTCEYCGKVFKNCSNLTVHRRSHTGERPYKCELCNYACAQSSKLTRHMKTHGQIGKEVYRCDICQMPFSVYSTLEKHMKKWHGEHLLTNDVKIEQAERS
modifications: left off: FLAG, end not stated, kept
notes: FLAG-BCL11B, wild-type protein expressed in transfected HEK293T cells
B2: BCL11B p.R3S: FLAG-BCL11B p.R3S, patient-derived mutant protein expressed in transfected HEK293T cells (protein, UniProt Q9C0K0 1-894, looked up, variant R3S)
B-cell lymphoma/leukemia 11B: B1 chain with R3S
modifications: FLAG tag
notes: FLAG-BCL11B p.R3S, patient-derived mutant protein expressed in transfected HEK293T cells

Key:
PRC2 complex = experiment: Co-immunoprecipitation with PRC2 complex (EZH2) in transfected HEK293T cells; type: binding; conditions: anti-FLAG co-IP, HEK293T extracts; EZH2 as PRC2 marker
Protocol: (§1) HEK293T cells were transfected with vectors encoding FLAG-BCL11B ([54]), FLAG-BCL11B p.R3S or Myc-SIRT1 using the calcium phosphate method. Transfected cells were harvested in ice-cold phosphate-buffered saline (PBS) 48 h after transfection. Cell suspensions were centrifuged at 2000g for 5 min, followed by lysis under native conditions in buffer containing 20 mM HEPES, pH 7.4, 250 mM NaCl, 2 mM EDTA, 10% glycerol, 0.5% NP-40, 0.1 mM PMSF, 1 μg/mL pepstatin A, 5 μg/mL leupeptin, 10 μM E64, 25 mM NaF, 5 mM […] and 10 mMN-ethylmaleimide. Cells were incubated on ice for 30 min with vortexing every 5 min, followed by sonication on ice to complete lysis and shear DNA. The lysate was cleared by centrifugation, and BCL11B was immunoprecipitated from native extracts with anti-FLAG antibody (Sigma F4042), as previously described ([54]). […] Fluorescent signal was recorded on an Odyssey dual-channel near-infrared imager (LI-COR) and analysed with manufacturer-supplied software (Image Studio, version 2.1).

HEK293T cells = experiment: Immunocytochemistry (expression and nuclear localization) in HEK293T cells; type: cell-based; conditions: 48 h after transfection, anti-BCL11B and DAPI
Protocol: HEK293T cells were grown on 0.1% gelatin-coated glass coverslips in 24-well plates seeded at 25 000 cells/well for 24 h prior to transfection with vectors encoding FLAG-BCL11B or FLAG-BCL11B p.R3S. Forty-eight hours after transfection, cells were washed twice with PBS, fixed in 4% paraformaldehyde in PBS for 10 min at room temperature, permeabilized with 0.3% Triton X-100/PBS for 10 min and washed twice with 0.1% Tween/PBS. The fixed and permeabilized cells were then prepared for immunocytochemistry by blocking for 1 h in 10% foetal bovine serum (FBS) in PBS, incubating for 4 h with rat anti-BCL11B monoclonal antibody (Abcam ab18465, 0.25 μg/ml) in 10% FBS/PBS, then incubating for 1.5 h with an anti-rat Cy3-conjugated secondary antibody (Jackson ImmunoResearch Laboratories, 1:500 dilution), followed by a final incubation in 10 μg/ml DAPI in PBS for 10 min. Cells were washed twice with 0.1% Tween/PBS between each immunocytochemistry step, and all incubations were conducted at room temperature. Cells were then washed twice with deionized water, followed by step-wise dehydration with 70% ethanol, 100% ethanol and xylene. Coverslips were then mounted on glass slides with DPX (VWR), dried overnight and stored at 4°C in the dark. Fluoromicrographs were obtained using a Zeiss microscope with appropriate filters and a 63× oil-immersion objective. […]

NuRD complex = experiment: Co-immunoprecipitation with NuRD complex (MTA2, HDAC2) in transfected HEK293T cells; type: binding; conditions: anti-FLAG co-IP, HEK293T extracts; MTA2 and HDAC2 as NuRD markers
Protocol: as §1

SIRT1 = experiment: Co-immunoprecipitation with SIRT1 in transfected HEK293T cells; type: binding; conditions: anti-FLAG co-IP, HEK293T extracts; Myc-SIRT1
Protocol: as §1

Row | Molecule | interaction with PRC2 complex (PRC2 complex) | expression and nuclear localization (HEK293T cells) | interaction with NuRD complex (NuRD complex) | interaction with SIRT1 (SIRT1)
1 | B1 | demonstrated herein | – | – | –
2 | B2 | does not interact with the NuRD or PRC2 complexes | well expressed and localized in the nucleus in a manner that was indistinguishable from wild-type protein | does not interact with the NuRD or PRC2 complexes | did not alter interaction of the protein with the class III histone deacetylase SIRT1
